# Data taken from the DeepSol protein solubility set.
# Experiment: soluble on expression in E. coli; label from the status in PepcDB or PDB records
row,Sequence,soluble on expression in E. coli
1,MNRIFCALMRADAARFREVVFPCALLQNHPHQFPHVLARLEFFAPPDQRNCLLLPRVLVKRSLAAKEPSKVNFLSVNLRKELHEEAKSSKKTNLK,not soluble
2,MEIIHLSEIDSTNDYAKELAKEGKRNFIVLADKQNNGKGRWGRVWYSDEGGLYFSMVLDSKLYNPKVINLLVPICIIEVLKNYVDKELGLKFPNDIMVKVNDNYKKLGGILTELTDDYMIIGIGINVNNQIRNEIREIAISLKEITGKELDKVEILSNFLKTFESYLEKLKNKEIDDYEILKKYKKYSITIGKQVKILLSNNEIITGKVYDIDFDGIVLGTEKGIERIPSGICIHVR,soluble
3,MSSENAQLKKDLIKAVLSPLFPTATEGGENMDSNLKALLDAAIDQKVDESETVTAESILDPSLPARWIFARITPGTTISIVTDSGDMIGPVVFVAFDQVHGIVFVTQESSVTPAGQATTLIDVDKVESVTFFSLEHHHHHH,soluble
4,MGSDKIHHHHHHLELSSHFTPEKIQVGISSCLLGQKVRFDGGHKNSYYCDVTLREHVEFVPVCPEMSIGLGAPRKSIRQVRDGDTLLIQSGDGSLDVTDKLNTFSQQKVAELDFLGGYILCAKSPTCGMERVTEYKIGTNNGSKAGVGVFAKVLMETYPHLPVEEEGRLNDLVLRENFITRLYAYHDWFSMLASGLTKHKLIQFHSRYKYLIMAHSPKWYRALGPILADIQDLSASADAYFDGFMTALKIKATRKNHTSTLQHIQGYFKKHLSAGQKQELSESIDKYRQGLLPLLVPITLINHYLREFPTPYIESQVYLNPHPEELKLRYAY,not soluble
5,GSHMASMTGGQQMGRGSMTQDEMKKAAGWAALKYVEKGSIVGVGTGSTVNHFIDALGTMSEEIKGAVSSSVASTEKLEALGIKIFDCNEVASLDIYVDGADEINADREMIKGGGAALTREKIVAAIADKFICIVDGTKAVDVLGTFPLPVEVIPMARSYVARQLVKLGGDPCYREGVITDNGNVILDVYGMKITNPKQLEDQINAIPGVVTVGLFAHRGADVVITGTPEGAKIEE,soluble
6,MEKISDLIECIAYEKNLPKEMISKVIQGCLLKMAQNELDPLARYLVVEENKQLQLIQLVEVLEDGDERLVNDPSKYISLSKAKEMDPSVKIKDELSYSLSLESMKQGAINRLFKDLQYQLEKALEDSHFEAFQKRLNSVLMGQVILVDHNQNTFIEIEQQFQGVLSMRHRIKGESFKVGDSIKAVLTQVKRTKKGLLLELSRTTPKMLEALLELEVPEIKDKEIEIIHCARIPGNRAKVSFFSHNARIDPIGAAVGVKGVRINAISNELNKENIDCIEYSNVPEIYITLALAPAKILSVEIKKIPIEELNAEEKESIQERFIVNNHLQKAKVRLLDIEKSKAIGKGGVNVCLASMLTGYHIEFETIPSVKENAENESEKETPKVGVEALESLFKNLEHHHHHH,soluble
7,MKIHHIGPMGVNPYQRQLAKTERLAAEKAPRDQVEISKEAKELQEAASWEQARQAKLEELRQQIENGAYQVDPRAVAKRMIEYYRNHR,not soluble
8,GPGSMSGGLPRQFVLKVERHVPVNKGMGLAYPTVPGGSDVADADATPHAGAGERHQSNEAGGDMASGTLKDEAGSIHLSHEKETQTEEVPLPTCEANACDVDGTHCLSVDALDMAVRSNGAALRQMRSSSHLTAAFHTSASDDYGDSISPNPSDRQSFIGSLRVSYVELMSGESIPVYFPPSLGTSGGVEGKTMTLSEDLGCENQ,not soluble
9,GAMGSMERASLIQKAKLAEQAERYEDMAAFMKGAVEKGEELSCEERNLLSVAYKNVVGGQRAAWRVLSSIEQKSNEEGSEEKGPEVREYREKVETELQGVCDTVLGLLDSHLIKEAGDAESRVFYLKMKGDYYRYLAEVATGDDKKRIIDSARSAYQEAMDISKKEMPPTNPIRLGLALNFSVFHYEIANSPEEAISLAKTTFDEAMADLHTLSEDSYKDSTLIMQLLRDNLTLWTADNAGEEGGEAPQEPQS,soluble
10,MSIEPTQVSREAELGAFLRTHRERLTPSDVGLPPGRRRRTPGLRREEVAQLSGLSATWITWLEQGRPVAMSVRALGSLAEALRLSRAERAYLFALAGKPEPRQDAEPAVPVALLASVQAISGPAYLLDRQWTARAWNAAAADLFVGWLDAASGERNLLRAMFLPTALQALVEDWPHRAARLVAEFRVHSLRHAEDPPTRALIERLMEDSPAFAAAWRSQDVDERQGGRRGFHHPMRGLVYFEQLTLVPPAAPGMMLVMLLPETP,soluble
11,SLTTLTVRVFTTAEIIYRKTVIALVCHLNCSRQETVTMNKTITALAIMMASFAANASVLPETPVPFKSGTGAIDNDTVYIGLGSAGTAWYKLDTQAKDKKWTALAAFPGGPRDQATSAFIDGNLYVFGGIGKNSEGLTQVFNDVHKYNPKTNSWVKLMSHAPMGMAGHVTFVHNGKAYVTGGVNQNIFNGYFEDLNEAGKDSTAIDKINAHYFDKKAEDYFFNKFLLSFDPSTQQWSYAGESPWYGTAGAAVVNKGDKTWLINGEAKPGLRTDAVFELDFTGNNLKWNKLAPVSSPDGVAGGFAGISNDSLIFAGGAGFKGSRENYQNGKNYAHEGLKKSYSTDIHLWHNGKWDKSGELSQGRAYGVSLPWNNSLLIIGGETAGGKAVTDSVLITVKDNKVTVQN,not soluble
12,SEATKERVGLLDTILPPALADAGLEDCALPPESIQEAFRKAANAVKSRAASIFDHEEEDGCLADPIPETADKIIVGGDNERDTGPCLAGKGIEKLAESKQAGDLVVAGEGEEGKSCVDGLKDLDVEGIERSSEKKDQSDEDEEEEMKPILVEGFV,soluble
13,MKVWIKASALLTLAGLTACSASPTGRNQILMFSDQEMSSLGAKSFDQMKKDIPISKDKKTNAYVQCVAKQITNAIPPQAGFKDWEVVVFDSDQVNAFALPGGKIGVYTGLLKVAKNQDQLATVIGHEVAHVLAEHSNERLSQSQLANAGLSLANVAIGASEYKQYQQLTMAALGVGVQYGVILPYGRTQESEADIVGLEYMAKAGFNPNQSVDLWKNMSAASGGAQPPEFFSTHPSHSTRIKDLQATINKLPKYNVKAPKCGLEHHHHHH,not soluble
14,VKFLTVNDDILSMPQARNFCASAGGYLADDLGDDKNNFYSSIAANTQFWIGLFKNSDGQFYWDRGQGINPDLLNQPITYWANGEPSNDPTRQCVYFDGRSGDKSKVWTTDTCATPRPFICQKHRYDSDHKPNTIGDA,soluble
15,MSLGPADGGGDLVGVAGRESWVQTVPYGMVVCPSGTFHMGQADEDVPATQINLNKQVTIGGFYMDETEITNNEYRQFMNVMLEDSVATLGEEYIMTELYPDTTVWVRDFSHHMGDPMMEYYYAHPAFDEYPVVGVDWWAAKYFCEWRTQHMNNWRAENGLWQMPRFRLPSEAEWEYAARGGRDMAKYPWGNPYIRNSKGCMLANFKPGRGNYYDDGFMYTSPVASYFSNDFGLYDMAGNISEWCEDAYYDAAVPIVWDLNPTYYNDDEVRKIIRGGSWKDIAYYLETGTRTFEYQDTSKSYIGFRTVMTYLGRSSGYEGHHHHHH,not soluble
16,MAHHHHHHMYGDKGPPKGYSVPRFDTNASKRCQTCSSTVHWTFECPLKNSATLSAKKSAATTVKLSPSQMLRYGIKQKSANFVSEPTEREVFDAELRELRSVLTAEVRQELKAKKSAAHKSGNDCKKHEAPLPSAAPKKEPPSDSVTMKTERTEEEE,soluble
17,MSLKYFEFTFHTSPCTETVNDVLAAVLGEAGFESFVESEGGLTAYIQQALCDENTIKNAITEFPLPDTEITYTYVEAEDKDWNEEWEKNFFQPIVIDNRCVIHSTFHKDVPQATYDIVINPQMAFGTGHHETTSLIIGELLDNELKDKSLLDMGCGTSILAILARMRGARPCIAIDIDEWCVRNSIENIELNHVDDIAVSQGDASSLVGKGPFDIIIANINRNILLNDMKQYVACMHPGSELYMSGFYVDDIPFIRREAEKNGLTFVHHKEKNRWAAVKFTYEGHHHHHH,soluble
18,MARTNLQFANLELFVDQLTGAMTFTRTSLLTAAQGALVTRFAEIDGRVKKNLDRVLAAFRQHRLGVHHFSSMTGYGHGDLGREVLDRVFAQVMGAEAALVRVQFVSGTHAIATALFGVLRPGDELISLAGPPYDTLEEVIGLRGQGQGSLKDFGIHYRELPLLASGEPDWGAIATCVQPQTRMVLIQRSCGYTWRPSLSLEDIGKMIQLIKSQNPDVVCFVDNCYGEFVETQEPPHVGADLIAGSLIKNPGGTIATAGGYLAGRADLIEQASYRLTAPGIGHEGGATFDQHRLLFQGLFLAPQMVGEALKCAHLLAYVFDELGYPVNPAPLSRRRDVIQAVQLGSPEKLIAFCRILQRYSPVGSYLDPVPAPMPGYADDLVMAGGTFIDGSTSELSADGPLRPPYIVFCQGGTHHTHMALILEALLEAQVFLEHHHHHH,not soluble
19,MEWHFSLKEPHVLLFLPFEKYALPYPDPSQSWLSFGLTEIPVPEWTKNLEIITPWRPDFLKFANAQFRCSPEINQTCTHDGALLQLSKYRGFNQNCFLDLLERVKPGGWIIIGGNKTSGADSMMKWVKKIVPITNKFSKNHGLVFWIQVPQQIEKQNTAQLRSPPLTFENKFQTTSGMFSHGRIDPGSAVLASHMCKTISGKTADFGAGWGFLSHAALERSEKLTALDLYEADYNALKAAKQHLKHITTSLPIHFYWHDLVHEPITNLYDTIISNPPFHTQQTTDVSLGQHFIINAAKYLKPGGNLLLVANRHLPYETLLKRLFRTVLIYEKAHGFKVIEAYR,not soluble
20,MEAESAPQAPMSGGRVLKMVTEMGSATVGGISPALSANAAKSFLEATDKEKKTLQGLNDRLGNYIDRVKKLEEQNRKLVADLDELRGKWGKDTSEIKIKYSESLSTARKDIDDAARRKAEVDVKVARHRDDLAEYRSRYEDIQQRRESDREKISQWTNAIADAQSEVEMLRARFKQLTDEEKRVTADNSRIWEELQKARSDLDDETIGRIDFQNQVQTLMEELEFLRRVHEQEVKELQALLAQAPADTREFFKNELALAIRDIKDEYDIIAKQGKQDMESWYKLKVSEVQGSANRANMESTYQRDEVKRMRDNIGDLRGKLGDLENKNSLLEKEVQNLNYQLTDDQRQYEAALNDRDATLRRMREECQTLVAELQALLDTKQMLDAEIAIYRKMLEGEETRVGLTQMVEQAVKTHSLQQQENTDSTRSVRGEVSTKTTFQRSAKGNVTISECDPNGKFIKLENSHRNKDENVGEHKIRRKLDGRREIVYSIPANVVIKPGKNLTIYARDQGGINNPPESLVFDGENTWGIGANVVTSLVNKDGEERATHTQKTIQSGQ,not soluble
21,MAHHHHHHMQRSMMRELCYVGSVALSPMRPKKNAFKLRERGETTRLFCANSEMSNFYGINESGFSNTRPPPYLLRFDKCNDVIAYTNEIDNESLKQIKNLAKLHIIKGHITILPDVHLGKGIIIGSVFLTKHFIIPNGVGVDIGCGVLCVKINKLKKKNLHEGVINNIYKKIKRNIPLSFDYHEKEVFDAKNVLDELVAKYASSNMAHIMNPKHLKQMGTLGGGNHFIEIAYDASGDVKAEPINGNLSGEAHQNDNTQKYACQQNHYPESDIYILIHSGSRNIGKSTAEFYDDLASHESKVKRNDLAYLDLRKKHGQNYLRDMQLCQEYAKYNRIYMMKIIEQIIKEELNCTLDWQNAINIHHNFCNHELVNYFHNGEVKKEYMYVTRKGATSSMKNQLGIIPGNMKVGSYIVRGKGNKLSYNSCSHGCGRVLSRTHAKKIINQADFVNIMKGVRCDTSAKIRDEATQAYKNLNKVLRNQDSLIHVVRRLLPLINVKGG,not soluble
22,MNIQNIRTLLDTVAVPNTARTLGGEKAVRSVEQRSDGIHIALHFGFPVAHIASETADRIQEILMPETGDTHIHLSMDTEIGTHKVQPGVTTIKGVKNIIAVASGKGGVGKSTTTANLAAAMARMGARVGVLDADLYGPSQPTMLGVDDRKPDQKNQKLIPVESSDGIQVMSIGFLVDTDQAVVWRGPMVSQALQQLMFQSEWDEVDYLFIDLPPGTGDIQLTLSQRIPVTGSVIVTTPQDIALIDARKAVDMFRKVNIPILGVLENMSVHICTNCGHSEALFGTDGGKDFAARLNVPLLGQLPLSLPVREAMDGGTPAQLFDEHPAIARIYTDAAFQIALSIADKGKDFSSRFPKIVVE,not soluble
